The results in this text go back to the supplement of paper PMC10567573.

B1: ZNF449 (parent)
chain: YRHQRLHTGERPYECTVCKKRFTR
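Note: lentivirally expressed fusions sorted by FACS into six bins by GFP to DsRed ratio, PSI derived from sequencing read proportions per bin multiplied by bin number.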

The variants in this data set derive from B1. Kind of data set: protein stability index of a GFP-peptide fusion (GPS, HEK-293T) (PSI 1-6); higher = more stable. Particulars: c terminus: a fixed tail appended.
For the variant YRHQRLHTGERPYECTVCKDRFTR [K20D], the protein stability index stood at 1.89. Regarding YRHQRLHTGERPYECTVCKERFTR [K20E], the protein stability index stood at 2.1.

For YRHQRLHTGERPYECTVCKRRFTR [K20R], the protein stability index worked out at 1.9. YRHQRLHTGERPYECTVCKLRFTR [K20L]: the protein stability index is 1.73. As for YRHQRLHTGERPYECTVCKGRFTR [K20G], the protein stability index is 2.36. With YRHQRLHTGERPYECTVCKMRFTR [K20M] the figure was 2.25. For YRHQRLHTGERPYECTVCKCRFTR [K20C] the value was 2.2.

Regarding YRHQRLHTGERPYECTVCKQRFTR [K20Q], the protein stability index was determined as 2.29. With YRHQRLHTGERPYECTVCKFRFTR [K20F] the figure was 2.15; with YRHQRLHTGERPYECTVCKYRFTR [K20Y], 2.46. For YRHQRLHTGERPYECTVCKHRFTR [K20H] the value was 2.17; for YRHQRLHTGERPYECTVCKVRFTR [K20V], 2.3; for YRHQRLHTGERPYECTVCKTRFTR [K20T], 2.03. With YRHQRLHTGERPYECTVCKPRFTR [K20P] the figure was 2.69; with YRHQRLHTGERPYECTVCKWRFTR [K20W], 1.61; with YRHQRLHTGERPYECTVCKARFTR [K20A], 1.95.

Consider YRHQRLHTGERPYECTVCKNRFTR [K20N], for which the protein stability index was determined as 2.1. With YRHQRLHTGERPYECTVCKIRFTR [K20I] the figure was 2.26; with YRHQRLHTGERPYECTVCKKRCTR [F22C], 3.46. With YRHQRLHTGERPYECTVCKKRMTR [F22M] the figure was 2.48.

Take YRHQRLHTGERPYECTVCKKRNTR [F22N]: the protein stability index was 3.09. With YRHQRLHTGERPYECTVCKKRVTR [F22V] the figure was 2.52; with YRHQRLHTGERPYECTVCKKRKTR [F22K], 2.79; with YRHQRLHTGERPYECTVCKKRITR [F22I], 2.76. As for YRHQRLHTGERPYECTVCKKRRTR [F22R], the protein stability index came out at 3.19. With YRHQRLHTGERPYECTVCKKRDTR [F22D] the figure was 2.94.

YRHQRLHTGERPYECTVCKKRWTR [F22W]: the protein stability index stood at 2.3. For the variant YRHQRLHTGERPYECTVCKKRSTR [F22S], the protein stability index is 3.06. With YRHQRLHTGERPYECTVCKKRLTR [F22L], the protein stability index turned out to be 2.87. With YRHQRLHTGERPYECTVCKKRATR [F22A] the figure was 2.93; with YRHQRLHTGERPYECTVCKKRYTR [F22Y], 2.84. With YRHQRLHTGERPYECTVCKKRGTR [F22G] the figure was 2.27. With YRHQRLHTGERPYECTVCKKRPTR [F22P], the protein stability index is 2.98. For YRHQRLHTGERPYECTVCKKRHTR [F22H] the value was 3.21; for YRHQRLHTGERPYECTVCKKRETR [F22E], 3.23; for YRHQRLHTGERPYECTVCKKRTTR [F22T], 2.41. For YRHQRLHTGERPYECTVCKKRQTR [F22Q] the value was 2.66; for YRHQRLHTGERPYECTVCKKIFTR [R21I], 1.9; for YRHQRLHTGERPYECTVCKKYFTR [R21Y], 2.49. For YRHQRLHTGERPYECTVCKKLFTR [R21L] the value was 2.02; for YRHQRLHTGERPYECTVCKKWFTR [R21W], 2.18. As for YRHQRLHTGERPYECTVCKKMFTR [R21M], the protein stability index was 1.89. For YRHQRLHTGERPYECTVCKKCFTR [R21C] the value was 2.01. For YRHQRLHTGERPYECTVCKKHFTR [R21H] the value was 2.56. For YRHQRLHTGERPYECTVCKKPFTR [R21P] the value was 2.46; for YRHQRLHTGERPYECTVCKKFFTR [R21F], 2.1; for YRHQRLHTGERPYECTVCKKDFTR [R21D], 2.46. For YRHQRLHTGERPYECTVCKKQFTR [R21Q], the protein stability index worked out at 1.98. For YRHQRLHTGERPYECTVCKKNFTR [R21N] the value was 1.93; for YRHQRLHTGERPYECTVCKKEFTR [R21E], 2.39. With YRHQRLHTGERPYECTVCKKGFTR [R21G], the protein stability index was determined as 1.96.

For YRHQRLHTGERPYECTVCKKAFTR [R21A], the protein stability index is 2.06. As for YRHQRLHTGERPYECTVCKKVFTR [R21V], the protein stability index is 2. For YRHQRLHTGERPYECTVCKKTFTR [R21T] the value was 1.92; for YRHQRLHTGERPYECTVCKKKFTR [R21K], 2.15; for YRHQRLHTGERPYECTVCKKSFTR [R21S], 1.65.

Regarding YRHQRLHTGERPYECTVCKKRFFR [T23F], the protein stability index was 2.62. For YRHQRLHTGERPYECTVCKKRFCR [T23C] the value was 2.7; for YRHQRLHTGERPYECTVCKKRFNR [T23N], 2.28; for YRHQRLHTGERPYECTVCKKRFYR [T23Y], 2.78. For YRHQRLHTGERPYECTVCKKRFVR [T23V] the value was 2.36; for YRHQRLHTGERPYECTVCKKRFMR [T23M], 2.85. For YRHQRLHTGERPYECTVCKKRFER [T23E] the value was 2.67.

Regarding YRHQRLHTGERPYECTVCKKRFIR [T23I], the protein stability index was 2.76. With YRHQRLHTGERPYECTVCKKRFQR [T23Q] the figure was 2.16; with YRHQRLHTGERPYECTVCKKRFDR [T23D], 2.21; with YRHQRLHTGERPYECTVCKKRFGR [T23G], 2.41. For YRHQRLHTGERPYECTVCKKRFLR [T23L] the value was 2.71; for YRHQRLHTGERPYECTVCKKRFSR [T23S], 2.09; for YRHQRLHTGERPYECTVCKKRFAR [T23A], 2.93.

As to YRHQRLHTGERPYECTVCKKRFPR [T23P], the protein stability index was found to be 2.45. For YRHQRLHTGERPYECTVCKKRFKR [T23K] the value was 2.54. With YRHQRLHTGERPYECTVCKKRFWR [T23W] the figure was 2.13; with YRHQRLHTGERPYECTVCKKRFRR [T23R], 2.85; with YRHQRLHTGERPYECTVCKKRFHR [T23H], 2.78. As for YRHQRLHTGERPYECTVCKKRFTN [R24N], the protein stability index worked out at 2.47. With YRHQRLHTGERPYECTVCKKRFTK [R24K] the figure was 3.32; with YRHQRLHTGERPYECTVCKKRFTA [R24A], 2.35. For YRHQRLHTGERPYECTVCKKRFTV [R24V] the value was 2.51; for YRHQRLHTGERPYECTVCKKRFTM [R24M], 2.68. With YRHQRLHTGERPYECTVCKKRFTP [R24P] the figure was 2.75; with YRHQRLHTGERPYECTVCKKRFTQ [R24Q], 2.31; with YRHQRLHTGERPYECTVCKKRFTC [R24C], 2.65. Turning to YRHQRLHTGERPYECTVCKKRFTD [R24D], the protein stability index is 2.6. With YRHQRLHTGERPYECTVCKKRFTL [R24L] the figure was 2.39. With YRHQRLHTGERPYECTVCKKRFTW [R24W] the figure was 1.87; with YRHQRLHTGERPYECTVCKKRFTF [R24F], 2.57; with YRHQRLHTGERPYECTVCKKRFTI [R24I], 2.14. Take YRHQRLHTGERPYECTVCKKRFTT [R24T]: the protein stability index worked out at 2.26.

Take YRHQRLHTGERPYECTVCKKRFTS [R24S]: the protein stability index is 2.3. For YRHQRLHTGERPYECTVCKKRFTE [R24E] the value was 2.78. For YRHQRLHTGERPYECTVCKKRFTG [R24G] the value was 2.44; for YRHQRLHTGERPYECTVCKKRFTH [R24H], 2.11. As to YRHQRLHTGERPYECTVCKKRFTY [R24Y], the protein stability index was 2.1.
